Source: PMC7367873, “Dissecting the sequence determinants for dephosphorylation by the catalytic subunits of phosphatases PP1 and PP2A” (Nature Communications, 2020)

How the values were obtained:
[1] = system: GFP-14-3-3β and its binding proteins; assay: GFP-14-3-3β co-IP with LC-MS/MS label-free quantification, untreated versus PP1c-treated; parameters: species or system human; conditions: 3 replicates each
GFP-14-3-3β = GFP-14-3-3β co-IP with LC-MS/MS, untreated GFP-14-3-3β versus GFP control (14-3-3 interactome); format: binding, human; conditions: 3 replicates each
[2] = PP1 vs untreated, LFQ intensities
[3] = untreated vs GFP, LFQ intensities

B1: NFX1 (protein, UniProt Q12986 1-1120, looked up)
Transcriptional repressor …: MAEAPPVSGTFKFNTDAAEFIPQEKKNSGLNCGTQRRLDSNRIGRRNYSSPPPCHLSRQVPYDEISAVHQHSYHPSGSKPKSQQTSFQSSPCNKSPKSHGLQNQPWQKLRNEKHHIRVKKAQSLAEQTSDTAGLESSTRSESGTDLREHSPSESEKEVVGADPRGAKPKKATQFVYSYGRGPKVKGKLKCEWSNRTTPKPEDAGPESTKPVGVFHPDSSEASSRKGVLDGYGARRNEQRRYPQKRPPWEVEGARPRPGRNPPKQEGHRHTNAGHRNNMGPIPKDDLNERPAKSTCDSENLAVINKSSRRVDQEKCTVRRQDPQVVSPFSRGKQNHVLKNVETHTGSLIEQLTTEKYECMVCCELVRVTAPVWSCQSCYHVFHLNCIKKWARSPASQADGQSGWRCPACQNVSAHVPNTYTCFCGKVKNPEWSRNEIPHSCGEVCRKKQPGQDCPHSCNLLCHPGPCPPCPAFMTKTCECGRTRHTVRCGQAVSVHCSNPCENILNCGQHQCAELCHGGQCQPCQIILNQVCYCGSTSRDVLCGTDVGKSDGFGDFSCLKICGKDLKCGNHTCSQVCHPQPCQQCPRLPQLVRCCPCGQTPLSQLLELGSSSRKTCMDPVPSCGKVCGKPLPCGSLDFIHTCEKLCHEGDCGPCSRTSVISCRCSFRTKELPCTSLKSEDATFMCDKRCNKKRLCGRHKCNEICCVDKEHKCPLICGRKLRCGLHRCEEPCHRGNCQTCWQASFDELTCHCGASVIYPPVPCGTRPPECTQTCARVHECDHPVYHSCHSEEKCPPCTFLTQKWCMGKHEFRSNIPCHLVDISCGLPCSATLPCGMHKCQRLCHKGECLVDEPCKQPCTTPRADCGHPCMAPCHTSSPCPVTACKAKVELQCECGRRKEMVICSEASSTYQRIAAISMASKITDMQLGGSVEISKLITKKEVHQARLECDEECSALERKKRLAEAFHISEDSDPFNIRSSGSKFSDSLKEDARKDLKFVSDVEKEMETLVEAVNKGKNSKKSHSFPPMNRDHRRIIHDLAQVYGLESVSYDSEPKRNVVVTAIRGKSVCPPTTLTGVLEREMQARPPPPIPHHRHQSDKNPGSSNLQKITKEPIIDYFDVQD
[1]; [2]
  Difference (log2), PP1 vs untreated: 0.3965 log2
GFP-14-3-3β; [3]
  Difference (log2), untreated vs GFP: 0.9482 log2

B2: BAG2 (protein, UniProt O95816 2-211, looked up)
BAG family molecular …: AQAKINAKANEGRFCRSSSMADRSSRLLESLDQLELRVEALREAATAVEQEKEILLEMIHSIQNSQDMRQISDGEREELNLTANRLMGRTLTVEVSVETIRNPQQQESLKHATRIIDEVVNKFLDDLGNAKSHLMSLYSACSSEVPHGPVDQKFQSIVIGCALEDQKKIKRRLETLLRNIENSDKAIKLLEHSKGAGSKTLQQNAESRFN
[1]; log2 difference, pairwise comparison PP1 vs untreated, label-free quantification
  Difference (log2), PP1 vs untreated: 2.1096
GFP-14-3-3β; log2 difference, pairwise comparison untreated vs GFP, label-free quantification
  Difference (log2), untreated vs GFP: -1.564

B3: FLOT1 (protein, UniProt O75955 1-427, looked up)
Flotillin-1: MFFTCGPNEAMVVSGFCRSPPVMVAGGRVFVLPCIQQIQRISLNTLTLNVKSEKVYTRHGVPISVTGIAQVKIQGQNKEMLAAACQMFLGKTEAEIAHIALETLEGHQRAIMAHMTVEEIYKDRQKFSEQVFKVASSDLVNMGISVVSYTLKDIHDDQDYLHSLGKARTAQVQKDARIGEAEAKRDAGIREAKAKQEKVSAQYLSEIEMAKAQRDYELKKAAYDIEVNTRRAQADLAYQLQVAKTKQQIEEQRVQVQVVERAQQVAVQEQEIARREKELEARVRKPAEAERYKLERLAEAEKSQLIMQAEAEAASVRMRGEAEAFAIGARARAEAEQMAKKAEAFQLYQEAAQLDMLLEKLPQVAEEISGPLTSANKITLVSSGSGTMGAAKVTGEVLDILTRLPESVERLTGVSISQVNHKPLRTA
[1]; [2]
  Difference (log2), PP1 vs untreated: 0.376 log2
GFP-14-3-3β; [3]
  Difference (log2), untreated vs GFP: -0.5076 log2

B4: BSG (protein, UniProt P35613 22-385, looked up)
Basigin: AAGFVQAPLSQQRWVGGSVELHCEAVGSPVPEIQWWFEGQGPNDTCSQLWDGARLDRVHIHATYHQHAASTISIDTLVEEDTGTYECRASNDPDRNHLTRAPRVKWVRAQAVVLVLEPGTVFTTVEDLGSKILLTCSLNDSATEVTGHRWLKGGVVLKEDALPGQKTEFKVDSDDQWGEYSCVFLPEPMGTANIQLHGPPRVKAVKSSEHINEGETAMLVCKSESVPPVTDWAWYKITDSEDKALMNGSESRFFVSSSQGRSELHIENLNMEADPGQYRCNGTSSKGSDQAIITLRVRSHLAALWPFLGIVAEVLVLVTIIFIYEKRRKPEDVLDDDDAGSAPLKSSGQHQNDKGKNVRQRNSS
[1]; [2]
  Difference (log2), PP1 vs untreated: 0.3522 log2
GFP-14-3-3β; [3]
  Difference (log2), untreated vs GFP: 0.07198 log2

B5: WBP11 (protein, UniProt Q9Y2W2 1-641, looked up)
WW domain-binding protein 11: MGRRSTSSTKSGKFMNPTDQARKEARKRELKKNKKQRMMVRAAVLKMKDPKQIIRDMEKLDEMEFNPVQQPQLNEKVLKDKRKKLRETFERILRLYEKENPDIYKELRKLEVEYEQKRAQLSQYFDAVKNAQHVEVESIPLPDMPHAPSNILIQDIPLPGAQPPSILKKTSAYGPPTRAVSILPLLGHGVPRLPPGRKPPGPPPGPPPPQVVQMYGRKVGFALDLPPRRRDEDMLYSPELAQRGHDDDVSSTSEDDGYPEDMDQDKHDDSTDDSDTDKSDGESDGDEFVHRDNGERDNNEEKKSGLSVRFADMPGKSRKKKKNMKELTPLQAMMLRMAGQEIPEEGREVEEFSEDDDEDDSDDSEAEKQSQKQHKEESHSDGTSTASSQQQAPPQSVPPSQIQAPPMPGPPPLGPPPAPPLRPPGPPTGLPPGPPPGAPPFLRPPGMPGLRGPLPRLLPPGPPPGRPPGPPPGPPPGLPPGPPPRGPPPRLPPPAPPGIPPPRPGMMRPPLVPPLGPAPPGLFPPAPLPNPGVLSAPPNLIQRPKADDTSAATIEKKATATISAKPQITNPKAEITRFVPTALRVRRENKGATAAPQRKSEDDSAVPLAKAAPKSGPSVPVSVQTKDDVYEAFMKEMEGLL
[1]; [2]
  Difference (log2), PP1 vs untreated: 0.3509 log2
GFP-14-3-3β; [3]
  Difference (log2), untreated vs GFP: 1.895 log2

B6: SRP14 (protein, UniProt P37108 2-136, looked up)
Signal recognition particle …: VLLESEQFLTELTRLFQKCRTSGSVYITLKKYDGRTKPIPKKGTVEGFEPADNKCLLRATDGKKKISTVVSSKEVNKFQMAYSNLLRANMDGLKKRDKKNKTKKTKAAAAAAAAAPAAAATAPTTAATTAATAAQ
[1]; [2]
  Difference (log2), PP1 vs untreated: 0.3437 log2
GFP-14-3-3β; [3]
  Difference (log2), untreated vs GFP: 1.473 log2

B7: ERC1 (protein, UniProt Q8IUD2 1-1116, looked up)
ELKS/Rab6-interacting/CAST …: MYGSARSVGKVEPSSQSPGRSPRLPRSPRLGHRRTNSTGGSSGSSVGGGSGKTLSMENIQSLNAAYATSGPMYLSDHENVGSETPKSTMTLGRSGGRLPYGVRMTAMGSSPNIASSGVASDTIAFGEHHLPPVSMASTVPHSLRQARDNTIMDLQTQLKEVLRENDLLRKDVEVKESKLSSSMNSIKTFWSPELKKERALRKDEASKITIWKEQYRVVQEENQHMQMTIQALQDELRIQRDLNQLFQQDSSSRTGEPCVAELTEENFQRLHAEHERQAKELFLLRKTLEEMELRIETQKQTLNARDESIKKLLEMLQSKGLSAKATEEDHERTRRLAEAEMHVHHLESLLEQKEKENSMLREEMHRRFENAPDSAKTKALQTVIEMKDSKISSMERGLRDLEEEIQMLKSNGALSTEEREEEMKQMEVYRSHSKFMKNKVEQLKEELSSKEAQWEELKKKAAGLQAEIGQVKQELSRKDTELLALQTKLETLTNQFSDSKQHIEVLKESLTAKEQRAAILQTEVDALRLRLEEKETMLNKKTKQIQDMAEEKGTQAGEIHDLKDMLDVKERKVNVLQKKIENLQEQLRDKEKQMSSLKERVKSLQADTTNTDTALTTLEEALAEKERTIERLKEQRDRDEREKQEEIDNYKKDLKDLKEKVSLLQGDLSEKEASLLDLKEHASSLASSGLKKDSRLKTLEIALEQKKEECLKMESQLKKAHEAALEARASPEMSDRIQHLEREITRYKDESSKAQAEVDRLLEILKEVENEKNDKDKKIAELERQVKDQNKKVANLKHKEQVEKKKSAQMLEEARRREDNLNDSSQQLQDSLRKKDDRIEELEEALRESVQITAEREMVLAQEESARTNAEKQVEELLMAMEKVKQELESMKAKLSSTQQSLAEKETHLTNLRAERRKHLEEVLEMKQEALLAAISEKDANIALLELSSSKKKTQEEVAALKREKDRLVQQLKQQTQNRMKLMADNYEDDHFKSSHSNQTNHKPSPDQIIQPLLELDQNRSKLKLYIGHLTTLCHDRDPLILRGLTPPASYNLDDDQAAWENELQKMTRGQLQDELEKGERDNAELQEFANAILQQIADHCPDILEQVVNALEESS
[1]; [2]
  Difference (log2), PP1 vs untreated: 0.3326 log2
GFP-14-3-3β; [3]
  Difference (log2), untreated vs GFP: 2.543 log2

B8: HLTF (protein, UniProt Q14527 1-1009, looked up)
Helicase-like transcription …: MSWMFKRDPVWKYLQTVQYGVHGNFPRLSYPTFFPRFEFQDVIPPDDFLTSDEEVDSVLFGSLRGHVVGLRYYTGVVNNNEMVALQRDPNNPYDKNAIKVNNVNGNQVGHLKKELAGALAYIMDNKLAQIEGVVPFGANNAFTMPLHMTFWGKEENRKAVSDQLKKHGFKLGPAPKTLGFNLESGWGSGRAGPSYSMPVHAAVQMTTEQLKTEFDKLFEDLKEDDKTHEMEPAEAIETPLLPHQKQALAWMVSRENSKELPPFWEQRNDLYYNTITNFSEKDRPENVHGGILADDMGLGKTLTAIAVILTNFHDGRPLPIERVKKNLLKKEYNVNDDSMKLGGNNTSEKADGLSKDASRCSEQPSISDIKEKSKFRMSELSSSRPKRRKTAVQYIESSDSEEIETSELPQKMKGKLKNVQSETKGRAKAGSSKVIEDVAFACALTSSVPTTKKKMLKKGACAVEGSKKTDVEERPRTTLIICPLSVLSNWIDQFGQHIKSDVHLNFYVYYGPDRIREPALLSKQDIVLTTYNILTHDYGTKGDSPLHSIRWLRVILDEGHAIRNPNAQQTKAVLDLESERRWVLTGTPIQNSLKDLWSLLSFLKLKPFIDREWWHRTIQRPVTMGDEGGLRRLQSLIKNITLRRTKTSKIKGKPVLELPERKVFIQHITLSDEERKIYQSVKNEGRATIGRYFNEGTVLAHYADVLGLLLRLRQICCHTYLLTNAVSSNGPSGNDTPEELRKKLIRKMKLILSSGSDEECAICLDSLTVPVITHCAHVFCKPCICQVIQNEQPHAKCPLCRNDIHEDNLLECPPEELARDSEKKSDMEWTSSSKINALMHALTDLRKKNPNIKSLVVSQFTTFLSLIEIPLKASGFVFTRLDGSMAQKKRVESIQCFQNTEAGSPTIMLLSLKAGGVGLNLSAASRVFLMDPAWNPAAEDQCFDRCHRLGQKQEVIITKFIVKDSVEENMLKIQNKKRELAAGAFGTKKPNADEMKQAKINEIRTLIDL
[1]; [2]
  Difference (log2), PP1 vs untreated: 0.3278 log2
GFP-14-3-3β; [3]
  Difference (log2), untreated vs GFP: 1.079 log2
